Literature values as cited in patent publication US9889085B1, “Therapeutic methods for the treatment of diabetes and related conditions for patients with high baseline HbA1c” (Intarcia Therapeutics, Inc., priority 2014, dated 2018).

Details: in vivo

Row | Substance | half-life
1 | EGTFTSDVSSYLEGQAAKEFIAWLVKGR [GLP-1] | approximately 2 minutes
2 | PYY: 36 amino acid residue peptide amide | approximately 8 minutes
